Square brackets hold non-standard residues; d marks the D form. Side chains are listed from the residue outwards. Ends that are not written are not given here. maleimide = maleimide: 4-arm PEG5k maleimide reacting with the C-terminal Cys thiol
How the values were obtained:
[1] = Peptides stability in 25% rat serum; assay type: in vitro ADME; conditions: FITC-labeled peptides, 25% fresh rat serum, 37 °C, 0, 4, 8, 24, 48, 96 h; acetonitrile/0.1% TFA precipitation; microplate reader; n = 3
Procedure: FITC‐labeled peptides were added into 25% rat serum and incubated at 37 °C. After incubation at 0, 4, 8, 24, 48, 96 h, 100 µL solution was collected and acetonitrile (containing 0.1% TFA) was added to precipitate the protein in the serum. The serum samples were incubated at 4 °C for 20 min and then centrifuged at 12 000 rpm for 10 min. A total of 20 µL supernatant was measured by a microplate reader.

[2] = system: 4T1 orthotopic tumor model; assay: Spontaneous lung metastasis of 4T1 orthotopic breast tumor model; assay type: in vivo, Balb/c female mice; conditions: intravenous, 0.2 µg g^–1 AHP-DRI-12, every 2 days, 14 times; sacrificed day 30
Procedure: The spontaneous lung metastasis of orthotopic breast tumor model was established via injection of 4T1 cells into the fourth inguinal mammary gland of Balb/c female mice. The mice were intravenously injected with saline, AHP‐DRI‐12, and PEG‐tAHP‐DRI (0.2 µg g^–1 AHP‐DRI‐12), respectively, every 2 days for total of 14 times. Mice were sacrificed on day 30 and their lungs were collected for observation and histological analysis.

With “PEG-tAHP-DRI: tetra-(D-retro-inverso isomer of AHP-12) substitued 4-arm PEG5k ([dP][dT][dT][dA][dD][dI][dT]C([maleimide-4‑arm PEG5k]); also: four peptides on one 4-arm PEG5k)” as the substance, how does the “degradation in 25% rat serum (proteolytic stability)” value [1] read?
Its value is “obviously enhanced proteolytic resistance”.

What about the “spontaneous metastasis to lungs” value [2] of the same substance?
The value was “efficiently restrain spontaneous metastasis to lungs”.

From publication PMC8188212, “Multi‐Arm PEG/Peptidomimetic Conjugate Inhibitors of DR6/APP Interaction Block Hematogenous Tumor Cell Extravasation” (Advanced Science, 2021)
